Source: the supplement of paper PMC7125110
± gives the standard error. This sample holds only a part of the variants without activity.

B1: glmS ribozyme (parent)
chain: AUAAAAGCGCCAGAACUACAGAAAUGUAGUUGACGAGGAGGAGGUUUAUCGAAUUUUCGGCGGAUGCCUCCAAA

Legend:
Settings in all cases: with glucosamine-6-phosphate
[1] = variants of: B1; test: self-cleavage kobs at 160 uM GlcN6P; higher = faster cleavage; RNA array
Summary of the method: (§1)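 kobs was derived by fitting per-tile medians to one- or two-exponential decays after normalising signals to baseline and to non-cleaving reference variants. Those signals came from barcoded ribozyme variants transcribed in situ by E. coli RNA polymerase on sequenced MiSeq chips, followed through a hybridised Cy3 probe at 37 °C and imaged over ~14 h. Glucosamine-6-phosphate (40 μM to 10 mM) in HEPES/KCl/Mg(OAc)2 buffer was flowed in. Weighted Michaelis–Menten fits across concentrations then gave kcat and KM.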

[2] = variants of: B1; test: self-cleavage kobs at 640 uM GlcN6P; higher = faster cleavage; RNA array
Summary of the method: as §1

[3] = variants of: B1; test: self-cleavage kobs at 2500 uM GlcN6P; higher = faster cleavage; RNA array
Summary of the method: as §1

[4] = variants of: B1; test: self-cleavage kobs at 10000 uM GlcN6P; higher = faster cleavage; RNA array
Summary of the method: as §1

Variant	self-cleavage kobs at 160 uM GlcN6P [1] [s⁻¹]	self-cleavage kobs at 640 uM GlcN6P [2] [s⁻¹]	self-cleavage kobs at 2500 uM GlcN6P [3] [s⁻¹]	self-cleavage kobs at 10000 uM GlcN6P [4] [s⁻¹]
C10G U31C A48U C61A C70G	< 1e-05	< 1e-05	–	–
C10G U46A U55C	< 1e-05	–	< 1e-05	–
G7U G9A	< 1e-05	< 1e-05	< 1e-05	–
C10G G29A G62U C71U	< 1e-05	< 1e-05	< 1e-05	–
G7C U55A A64U	< 1e-05	< 1e-05	< 1e-05	–
G7U C10G A33U C34U C67G C68A	6.38e-05 ± 2.3e-05	3.4e-05 ± 1.7e-05	–	–
C10G G44U C50U C61U	< 1e-05	< 1e-05	–	–
G7U A14C A48U	< 1e-05	< 1e-05	< 1e-05	–
A6U G9A U49C	< 1e-05	–	–	–
G9C A48G	< 1e-05	< 1e-05	< 1e-05	< 1e-05
C8U G29U G41A G44C	< 1e-05	–	–	–
G7A G43C	< 1e-05	< 1e-05	< 1e-05	< 1e-05
C8U G66U	< 1e-05	< 1e-05	–	< 1e-05
C8U G66C	< 1e-05	< 1e-05	< 1e-05	< 1e-05
G9A A12G A14G G35U	< 1e-05	–	< 1e-05	–
G7A G9U C50U	< 1e-05	–	< 1e-05	–
C8U G9C G62A U65G	< 1e-05	–	< 1e-05	–
C10U A20G U55C	< 1e-05	–	–	–
A6U A12G G66U	8.08e-05 ± 2.3e-05	–	–	–
C10G U31C A33C G51U C71U	< 1e-05	< 1e-05	–	–
C8A A12U C67U	< 1e-05	< 1e-05	< 1e-05	–
C8U A12C A36G G37A	< 1e-05	–	–	–
C8G G35A	< 1e-05	–	–	< 1e-05
C8G U30G G37A G66A U69G	0.000132 ± 4.9e-05	0.000166 ± 6e-05	–	–
G7A G59C	< 1e-05	< 1e-05	–	–
G9U A14G U54A U56C G59A G63A U65G	< 1e-05	< 1e-05	–	–

Variant	self-cleavage kobs at 160 uM GlcN6P [1] [s⁻¹]	self-cleavage kobs at 640 uM GlcN6P [2] [s⁻¹]	self-cleavage kobs at 2500 uM GlcN6P [3] [s⁻¹]	self-cleavage kobs at 10000 uM GlcN6P [4] [s⁻¹]
C8A U31G G62A	< 1e-05	–	< 1e-05	–
A6G U47C C67G	< 1e-05	< 1e-05	–	–
C10A G32C G51U	< 1e-05	–	–	–
G7A A15U	< 1e-05	–	–	–
G7A G37U	< 1e-05	< 1e-05	< 1e-05	< 1e-05
G7U C34A U65G	< 1e-05	< 1e-05	–	–
C8U G35C C70G	< 1e-05	–	–	–
C8G G59A C70G	< 1e-05	–	–	–
G7U C8G G51C	< 1e-05	< 1e-05	< 1e-05	–
G9A C10U G13A A52C	< 1e-05	< 1e-05	< 1e-05	–
G7A U54C U65G C67U	< 1e-05	< 1e-05	< 1e-05	–
C8U U47C A48C C67G	< 1e-05	< 1e-05	< 1e-05	–
C10G C19A A48C	< 1e-05	< 1e-05	–	–
C10A C16U G41A A42C	< 1e-05	< 1e-05	< 1e-05	< 1e-05
G9C G51U	< 1e-05	< 1e-05	–	< 1e-05
C10G U45C	< 1e-05	–	< 1e-05	–
A6G C58U U65C	< 1e-05	–	< 1e-05	–
C8U A15G G29A	< 1e-05	< 1e-05	< 1e-05	–
G7U C50A	< 1e-05	< 1e-05	–	< 1e-05
C10U A39U A64U C70G	< 1e-05	< 1e-05	–	–
G7A A48G	< 1e-05	–	< 1e-05	< 1e-05
A6G G44A C71A	< 1e-05	< 1e-05	< 1e-05	< 1e-05
C8G U57C G62U	< 1e-05	< 1e-05	< 1e-05	< 1e-05
G7A C71G	< 1e-05	–	–	–
G9C G40A	< 1e-05	< 1e-05	< 1e-05	< 1e-05
G9C G40U	< 1e-05	< 1e-05	< 1e-05	< 1e-05

Variant	self-cleavage kobs at 160 uM GlcN6P [1] [s⁻¹]	self-cleavage kobs at 640 uM GlcN6P [2] [s⁻¹]	self-cleavage kobs at 2500 uM GlcN6P [3] [s⁻¹]	self-cleavage kobs at 10000 uM GlcN6P [4] [s⁻¹]
G9A A52U C70U	< 1e-05	–	–	–
G9C A12C U31C	< 1e-05	< 1e-05	< 1e-05	–
G9U G32C G35C A64G	< 1e-05	< 1e-05	< 1e-05	–
C10A U31G A42U	< 1e-05	< 1e-05	< 1e-05	–
C8G C16G	< 1e-05	< 1e-05	< 1e-05	< 1e-05
C8G C16A	< 1e-05	< 1e-05	< 1e-05	< 1e-05
C10G C11U C16A A33U C34U C50G C70U	4.84e-05 ± 2.3e-05	4.89e-05 ± 1.6e-05	6.14e-05 ± 2.5e-05	–
C8A U57A	< 1e-05	< 1e-05	< 1e-05	< 1e-05
C10U A33G G51A A64C	< 1e-05	–	–	–
G9A U65G C71G	< 1e-05	< 1e-05	< 1e-05	–
C8A U30A G37U C58A	< 1e-05	–	–	–
G7A U30C G60U A64C	< 1e-05	–	< 1e-05	–
G7A G41U	< 1e-05	< 1e-05	–	< 1e-05
A6U A12G A48U G59U G62A	< 1e-05	–	–	–
C10U A12U G44A U49C C70G	< 1e-05	< 1e-05	< 1e-05	–
G7C A12G A33U G51U	< 1e-05	–	–	–
G9U C67A	< 1e-05	< 1e-05	< 1e-05	< 1e-05
C10A U69G	3.29e-05 ± 1.6e-05	–	0.000329 ± 8.6e-05	3.29e-05 ± 1.6e-05
C10G U65C	< 1e-05	< 1e-05	< 1e-05	< 1e-05
G7U G9C G59C U69G	< 1e-05	< 1e-05	–	–
A6U U47A A53U	< 1e-05	–	–	–
C10G C11A C16U G38U	< 1e-05	< 1e-05	–	< 1e-05
C8G U30A G40U	< 1e-05	–	< 1e-05	–
A6G U69C	< 1e-05	–	–	2.56e-05 ± 1e-05
C10G G41C G63U	< 1e-05	< 1e-05	–	–
G9A C16U G41A A48U	< 1e-05	< 1e-05	< 1e-05	< 1e-05

Variant	self-cleavage kobs at 160 uM GlcN6P [1] [s⁻¹]	self-cleavage kobs at 640 uM GlcN6P [2] [s⁻¹]	self-cleavage kobs at 2500 uM GlcN6P [3] [s⁻¹]	self-cleavage kobs at 10000 uM GlcN6P [4] [s⁻¹]
G9U U31G A48G	< 1e-05	–	–	–
A6G G9A	< 1e-05	< 1e-05	< 1e-05	< 1e-05
A6U C11G U30G U31A A42U	< 1e-05	< 1e-05	< 1e-05	–
C10A G38A G41U G44A G59U	< 1e-05	< 1e-05	< 1e-05	–
A6U G40A A52C	< 1e-05	< 1e-05	< 1e-05	–
G7U A53C	< 1e-05	< 1e-05	–	< 1e-05
G7U C11U G29U U30A	< 1e-05	< 1e-05	–	–
G9U C10U U54G	< 1e-05	–	–	–
C8U G41U C58U C68A C70G	< 1e-05	–	–	–
G9U A33U A53G G66U	< 1e-05	–	–	–
G7A A12C	< 1e-05	–	–	–
C10U A33C G59A G66U	< 1e-05	< 1e-05	–	–
G7U G59A	< 1e-05	< 1e-05	< 1e-05	< 1e-05
G9A A14U A36C U46G	< 1e-05	–	< 1e-05	–
G7U G37U	< 1e-05	–	–	< 1e-05
G9C U45A U47C C68G	< 1e-05	< 1e-05	< 1e-05	–
C8U A39U U46C U56C G59U	< 1e-05	< 1e-05	< 1e-05	–
G9A A42G G44C U56G U65G	< 1e-05	< 1e-05	–	–
C8A A33C G35U G63U	< 1e-05	< 1e-05	< 1e-05	–
A6U G38U U47G	< 1e-05	–	–	–
G7C G32U A36U G40U A42U A52G	< 1e-05	< 1e-05	< 1e-05	–
G9A U49A	< 1e-05	< 1e-05	< 1e-05	–
G9A A12U U31A A52G G59C	< 1e-05	–	< 1e-05	–
G7C C8U A15G G35A	< 1e-05	–	< 1e-05	–
